Results from patent JP2021136920A.

How the values were obtained:
[1] = biological target: Glycer−AGEs由来新規構造体修飾―ウシ血清アルブミン(GAL13−BSA) (bovine) (UniProt P02769); test: SPR, Biacore T200; GAL13-BSA amine-coupled on CM5
[2] = biological target: グリセルアルデヒド由来AGEs含有ウシ血清アルブミン(Glycer−AGEs−BSA) (bovine) (UniProt P02769); test: SPR, Biacore T200; Glycer-AGEs-BSA amine-coupled on CM5, antibody 0-400 nM
[3] = biological target: A−peakを架橋させたBSA(A−peak−BSA) (bovine) (UniProt P02769); test: SPR, Biacore T200; A-peak-BSA amine-coupled on CM5 (72 RU), antibody 0.1953-50 nM, 1:1 binding model

B1: 新規モノクローナル抗体SJ−5 (antibody, V domains shown)
VH: EVMLVESGGRLVKPGGSLKLSCAASGFTFSSYGMSWVRQTPEKRLEWVATISGGGSYTYYPDSVKGRFTISRDNVKNNLYLQMSSLRSEDTALYYCARRGAYGDYGWFAYWGQGTLVTVSA
VL: DIVLTQSPATLSVTPGDSVSLSCRASQSINNNLHWYQQKSHESPRLLIKCASQSISGIPSRFSGSGSGTDFTLSINSVETEDFGMYFCQQSNSWPLTFGAGTKLELK
Kd [1]: 87.5 nM
Kd [2]: 57.4 nM

B2: 新規モノクローナル抗体PB−1 (antibody, V domains shown)
VH: EVRLQQSGPELVKPGTSVKISCKASGYSFTGYYMHWVKQSPVKSLEWIGRIIPYNGATSYNQNFKDKASLTVDKSSRTAYMDLHSLTSEDSAVYYCARSRYYGRAPYYFDYWGQGTTLTVSS
VL: DVVVTQTPLSLPVSLGDQASISCRSSQSIVHSNGNTYLEWYLQKPGQSPKLLIYKVSNRFSGVPDRISGSGSGTDFTLKISRVEAGDLGVYSCFQGSHVPFTFGSGTKLEIK
Kd [3]: 4.15 nM
